T1: IL1RL2 over-expressed on Expi293 cells (UniProt Q9HB29 20-575, limits assumed)
T1 construct: whole, on cells; Target of the flow cytometry assay; MFI ratio is over-expressing cells over parent cells
T1 sequence (looked up): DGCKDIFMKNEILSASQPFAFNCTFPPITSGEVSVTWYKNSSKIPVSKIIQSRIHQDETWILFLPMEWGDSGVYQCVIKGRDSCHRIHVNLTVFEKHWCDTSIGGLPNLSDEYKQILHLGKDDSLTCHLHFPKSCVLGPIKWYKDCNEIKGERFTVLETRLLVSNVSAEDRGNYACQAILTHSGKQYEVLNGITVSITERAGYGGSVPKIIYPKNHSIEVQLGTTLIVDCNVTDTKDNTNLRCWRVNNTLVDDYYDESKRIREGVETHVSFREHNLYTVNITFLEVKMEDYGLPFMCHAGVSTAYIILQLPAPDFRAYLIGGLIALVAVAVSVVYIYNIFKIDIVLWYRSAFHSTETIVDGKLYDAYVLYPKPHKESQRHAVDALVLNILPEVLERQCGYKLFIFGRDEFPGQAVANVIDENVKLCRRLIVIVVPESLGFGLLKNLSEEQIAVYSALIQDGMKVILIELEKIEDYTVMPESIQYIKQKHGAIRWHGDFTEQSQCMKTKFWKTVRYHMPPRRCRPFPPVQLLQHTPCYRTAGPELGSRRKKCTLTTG


Legend:
[1] = target: T2, TSLP (UniProt Q969D9 29-159); assay: SPR, Carterra LSA, antibody amine-coupled, 1:1 model
T2 construct: Soluble analyte of the SPR assay
Procedure: SPR experiments were performed on a Carterra LSA SPR biosensor equipped with a HC30M chip at 25° C. in HBS-TE. Antibodies were diluted to 10 μg/mL and amine-coupled to the sensor chip by EDC/NHS activation, followed by ethanolamine HCl quenching. Increasing concentrations of analyte were flowed over the sensor chip in HBS-TE with 0.5 mg/mL BSA with 5-minute association and 15-minute dissociation. Following each injection cycle the surface was regenerated with 2× 30-second injections of IgG elution buffer (Thermo). Data were analyzed in Carterra's Kinetics Tool software with 1:1 binding model.

[2] = target: T3, TSLP on over-expressing Expi293 cells (UniProt Q969D9 29-159, limits assumed); assay: flow cytometry, 100 nM, TSLP over-expressing Expi293 over parent cells
T3 construct: whole, on cells; Target of the flow cytometry assay; also called cytokine over-expressing Expi293 cells
Procedure: (§1) All incubations and washes were in buffer containing PBS+1% BSA. MFI Ratio is defined by the mean fluorescence intensity (MFI) of the cytokine over-expressing Expi293 cell over the Expi293 parent cell. […] EC50 was calculated in GraphPad Prism.

[3] = target: T3, TSLP on over-expressing Expi293 cells; assay: flow cytometry titration on TSLP over-expressing Expi293 cells
Procedure: as §1

[4] = target: T1, IL1RL2 over-expressed on Expi293 cells; assay: flow cytometry titration on over-expressing Expi293 cells
Procedure: as §1

[5] = target: T1, IL1RL2 over-expressed on Expi293 cells; assay: flow cytometry, over-expressing Expi293 vs parent cells, 100 nM antibody;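 note: ratio is mean fluorescence intensity on over-expressing Expi293 cells divided by that measured on parental Expi293 cells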
Procedure: as §1

| Binder | Kd [1] [nM] | koff [1] [s⁻¹] | kon [1] [M⁻¹ s⁻¹] | 100 nM (MFI Ratio) [2] [MFI ratio] | EC50 [3] [nM] | EC50 [4] [nM] | 100 nM FACS (MFI Ratio) [5] |
| --- | --- | --- | --- | --- | --- | --- | --- |
| TSLP-17 (VHH, VHH-Fc (IgG2 Fc); not shown: IgG2 Fc of the VHH-Fc format) VHH: EVQLVESGGGLVQPGGSLRLSCAASGTTFEIYPMGWFRQAPGKEREFVAAIHWNSGITYYADSVKGRFTISADNSKNTAYLQMNSLKPEDTAVYYCARDVFYFDSSGYSLWGQGTLVTVSS | 11.2 | 0.00042 | 37500 | 154 | 0.12 |  |  |
| TSLP-13 (VHH, VHH-Fc (IgG2 Fc); not shown: IgG2 Fc of the VHH-Fc format) VHH: EVQLVESGGGLVQPGGSLRLSCAASGFTFDDNDMGWFRQAPGKEREFVGAISWSGNTTYYKYYADSVKGRFTISADNSKNTAYLQMNSLKPEDTAVYYCSNQYGWGQGTLVTVSS | 41.3 | 0.0013 | 31600 | 120 | 0.37 |  |  |
| TSLP-4 (VHH, VHH-Fc (IgG2 Fc); not shown: IgG2 Fc of the VHH-Fc format) VHH: EVQLVESGGGLVQPGGSLRLSCAASGFTFSSYWMGWFRQAPGKERELVSAIFSDGSTMYADSVKGRFTISADNSKNTAYLQMNSLKPEDTAVYYCTRDSTDTRYWGQGTLVTVSS | 7.14 | 0.000542 | 75900 | 157 | 0.18 |  |  |
| TSLP-121 (antibody, V domains shown) VH: QVQLVQSGAEVKKPGSSVKVSCKASGGSFSSYAISWVRQAPGQGLEWMGGIIPMNYAQKFQGRVTITADESTSTAYMELSSLRSEDTAVYYCARQLAAALVYWGQGTLVTVSS VL: EIVLTQSPGTLSLSPGERATLSCRASQNVNTRYLAWYQQKPGQAPRLLIYAASSRATGIPDRFSGSGSGTDFTLTISSLEPEDFAVYYCQQYESSPYNFGQGTKVEIK | 2.96 | 0.00175 | 589000 | 37.5 | 1.35 |  |  |
| IL1RL2-165 (antibody, V domains shown, IgG2) VH: EVQLLESGGGLVQPGGSLRLSCAASGFTFSSAAMSWVRQAPGKGLEWVSAISGSGGNTYYADSVKGRFTISRDNSKNTLYLQMNSLRAEDTAVYYCARSYGGGFDYWGQGTLVTVSS VL: DIQMTQSPSSLSASVGDRVTITCSGHNLGDKFASWYQQKPGKAPKLLIYSASNLESGVPSRFSGSGSGTDFTLTISSLQPEDFATYYCQSYASQGIHYVFGQGTKVEIK |  |  |  |  |  | 34.5 | 707 |
| IL1RL2-179 (antibody, V domains shown, IgG2) VH: EVQLLESGGGLVQPGGSLRLSCAASGFTFSPRRMSWVRQAPGKGLEWVSTIDDLGRHTYYADSVKGRFTISRDNSKNTLYLQMNSLRAEDTAVYYCAKLANSLLFDYWGQGTLVTVSS VL: DIQMTQSPSSLSASVGDRVTITCRASENIYSNLAWYQQKPGKAPKLLIYAASDLESGVPSRFSGSGSGTDFTLTISSLQPEDFATYYCGATDLSPWSIVFDQGTKVEIK |  |  |  |  |  | 27.5 | 17.7 |
| TSLP-9 (VHH, VHH-Fc (IgG2 Fc); not shown: IgG2 Fc of the VHH-Fc format) VHH: EVQLVESGGGLVQPGGSLRLSCAASGPMSSSAVMGWFRQAPGKEREAVALGWSGGSTYYADSVKGRFTISADNSKNTAYLQMNSLKPEDTAVYYCAIHTSREIWGQGTLVTVSS | 31 | 0.00151 | 48600 | 8.6 | 0.73 |  |  |
| TSLP-36 (VHH, VHH-Fc (IgG2 Fc); not shown: IgG2 Fc of the VHH-Fc format) VHH: EVQLVESGGGLVQPGGSLRLSCAASGGTLDDYVMGWFRQAPGKEREFVGFIGSDGSTLYADSVKGRFTISADNSKNTAYLQMNSLKPEDTAVYYCTTEWDGYWGQGTLVTVSS | 3.39 | 0.000487 | 144000 | 100 | 0.11 |  |  |
| TSLP-30 (VHH, VHH-Fc (IgG2 Fc); not shown: IgG2 Fc of the VHH-Fc format) VHH: EVQLVESGGGLVQPGGSLRLSCAASGRTFSTYGMGWFRQAPGKEREFVAAMISWNGGSSTYYADSVKGRFTISADNSKNTAYLQMNSLKPEDTAVYYCTTDPAEFYDSSTYYPAPFDYWGQGTLVTVSS | 63.2 | 0.000996 | 15800 | 105 | 0.43 |  |  |
| TSLP-10 (VHH, VHH-Fc (IgG2 Fc); not shown: IgG2 Fc of the VHH-Fc format) VHH: EVQLVESGGGLVQPGGSLRLSCAASGFTLDDYVMGWFRQAPGKEREGVATIAGGGTYYADSVKGRFTISADNSKNTAYLQMNSLKPEDTAVYYCASSGSYYPGHFEWGQGTLVTVSS | 8.43 | 0.000805 | 95500 | 67.8 | 1.4 |  |  |
| TSLP-2 (VHH, VHH-Fc (IgG2 Fc); not shown: IgG2 Fc of the VHH-Fc format) VHH: EVQLVESGGGLVQPGGSLRLSCAASGLTFSTTVMGWFRQAPGKEREWVATIAGDGSTFYADSVKGRFTISADNSKNTAYLQMNSLKPEDTAVYYCADINEDWGQGTLVTVSS | 6.49 | 0.0018 | 278000 | 218 | 0.43 |  |  |
| TSLP-38 (VHH, VHH-Fc (IgG2 Fc); not shown: IgG2 Fc of the VHH-Fc format) VHH: EVQLVESGGGLVQPGGSLRLSCAASGFSLDYYAMGWFRQAPGKERELVSAIFSDGSALYADSVKGRFTISADNSKNTAYLQMNSLKPEDTAVYYCAKDRDTGIGAYDWGQGTLVTVSS | 10.1 | 0.000487 | 48300 | 89.3 | 0.31 |  |  |
| TSLP-32 (VHH, VHH-Fc (IgG2 Fc); not shown: IgG2 Fc of the VHH-Fc format) VHH: EVQLVESGGGLVQPGGSLRLSCAASGNSFNNYVMGWFRQAPGKEREMVSAIFSDGSTYYADSVKGRFTISADNSKNTAYLQMNSLKPEDTAVYYCVRDSGSVSGQTFDSWGQGTLVTVSS | 7.24 | 0.00121 | 167000 | 195 | 0.45 |  |  |
| TSLP-5 (VHH, VHH-Fc (IgG2 Fc); not shown: IgG2 Fc of the VHH-Fc format) VHH: EVQLVESGGGLVQPGGSLRLSCAASGVTLDTDAMGWFRQAPGKEREFVAWINNRGTTDYADSVKGRFTISADNSKNTAYLQMNSLKPEDTAVYYCARVSQWLLGGPANWGQGTLVTVSS | 24.5 | 0.000759 | 31000 | 149 | 0.73 |  |  |
| TSLP-40 (VHH, VHH-Fc (IgG2 Fc); not shown: IgG2 Fc of the VHH-Fc format) VHH: EVQLVESGGGLVQPGGSLRLSCAASGLTFSRYAMGWFRQAPGKEREFVSAIFSDGSTYYADSVKGRFTISADNSKNTAYLQMNSLKPEDTAVYYCARGPNWFDPWGQGTLVTVSS | 19.3 | 0.000493 | 25600 | 288 | 0.14 |  |  |
| IL1RL2-153 (antibody, V domains shown, IgG2) VH: EVQLLESGGGLVQPGGSLRLSCAASGFIFQWYDMGWVRQAPGKGLEWVSSIRGSSSSTYYADSVKGRFTISRDNSKNTLYLQMNSLRAEDTAVYYCARDLGDYWGQGTLVTVSS VL: DIQMTQSPSSLSASVGDRVTITCRASQNIRSYLNWYQQKPGKAPKLLIYDDIDRPSGVPSRFSGSGSGTDFTLTISSLQPEDFATYYCQTWGPGIRVFGQGTKVEIK |  |  |  |  |  | 445 | 350 |
| TSLP-16 (VHH, not shown: IgG2 Fc of the VHH-Fc format) VHH: EVQLVESGGGLVQPGGSLRLSCAASGFSLDDYAMGWFRQAPGKEREGVATIAGGYTYYADSVKGRFTISADNSKNTAYLQMNSLKPEDTAVYYCAAFDGYTGSDWGQGTLVTVSS | 11.9 | 0.00143 | 120000 | 10 | 0.58 |  |  |
